Key:
cdc2 = cdc2 (human, UniProt P06493); assay: in vitro translated 35S-labelled protein, pull-down with GST-p80CD on glutathione agarose
Description: (§1) U937 cells lysates (15×10⁶/assay) were prepared and affinity precipitated with the indicated fusion protein as described below. Whole cell extracts were prepared from 2×10⁶ U937 cells by boiling the cells in 100 μl of SDS-sample buffer. Proteins were resolved by 8.5% SDS-polyacrylamide gel electrophoresis, transferred to PVDF membrane, and probed with the indicated antibodies. The mock reaction contains GST-p60Δ8 without U937 cell lysates. […] The samples were subjected to 8.5% SDS-polyacrylamide gel electrophoresis and analyzed by a PhosphorImager. Ten percent of total ^35S-labeled protein (10% input) added to each binding reaction was loaded as a standard. […] The conditions utilized for this experiment were similar to those previously described (Dyson et al., 1989). Briefly, U937 cells were either treated without or with 0.1 nM TNF for 5 minutes. […] Precipitates bound to protein A/G sepharose beads were collected by centrifugation and washed four times in lysis buffer and one time in kinase buffer. The samples were subjected to 8.5% SDS-polyacrylamide gel electrophoresis and analyzed by a PhosphorImager and ImageQuant software.

cdk2 = cdk2 (human (endogenous, U937 cells); not …, UniProt P24941); assay: as above
Description: as §1

cdk4 = cdk4 (human, UniProt P11802); assay: precipitation of U937 cell extracts with p13^suc1 -agarose, immunoblot
Description: U937 cells (4×10^6) were lysed and precipitated with p13^suc1 agarose. Beads were collected by centrifugation, washed with lysis buffer, and boiled in the presence of SDS-sample buffer. […] Immunoreactive bands were detected using horseradish peroxidase-conjugated secondary antibodies and the Enhanced Chemiluminescence system (ECL). […] Equal amounts of U937 cell lysates were incubated with 25 μg of either GST bound to glutathione agarose (−) or p13^suc1-agarose (+) for 1 hour at 4° C. with shaking. The beads were collected by centrifugation, and the supernatant was once more centrifuged. An equal volume of the supernatant was affinity precipitated with GST-p60Δ15. The precipitates were washed extensively, and in vitro kinase assays with histone H1 (5 μg) were performed as described below. Proteins were separated by 8% SDS-polyacrylamide gel electrophoresis and analyzed by a PhosphorImager and ImageQuant software. […] Equal amounts of U937 cell lysates were incubated with either GST bound to glutathione agarose (−) or p13^suc1-agarose (+) for 1 hour at 4° C. with shaking. The beads were collected by centrifugation, and the supernatant was once more centrifuged. An equal volume of the supernatant was affinity precipitated with either GST-p60Δ8 or GST-p60Δ15. The precipitates were washed extensively, and in vitro kinase assays with Rb^110 (0.2 μg) were performed as described below.

Binder	binding result (cdc2)	binding result (cdk2)	binding result (cdk4)
GST-p80CD (receptor) KKKPLCLQREAKVPHLPADKARGTQGPEQQHLLITAPSSSSSSLESSASALDRRAPTRNQPQAPGVEASGAGEARASTGSSDSSPGGHGTQVNVTCIVNVCSSSDHSSQCSSQASSTMGDTDSSPSESPKDEQVPFSKEECAFRSQLETPETLLGSTEEKPLPLGVPDAGMKPS	no binding	no binding	–
p13^suc1 -agarose (other) SKSGVPRLLTASERERLEPFIDQIHYSPRYADDEYEYRHVMLPKAMLKAIPTDYFNPETGTLRILQEEEWRGLGITQSLGWEMYEVHVPEPHILLFKREKDYQMKFSQQRGG	–	–	no binding

Source: patent publication US5856161, “Tumor necrosis factor receptor-I-associated protein kinase and methods for its use” (Research Development Foundation, dated 1999)
